Experimental data from publication PMC12628175.

Biological target: Recombinant human G-CSFR (granulocyte-colony-stimulating factor receptor) (human) (UniProt Q99062)
UniProt Q99062, sequence (Q99062 25-333): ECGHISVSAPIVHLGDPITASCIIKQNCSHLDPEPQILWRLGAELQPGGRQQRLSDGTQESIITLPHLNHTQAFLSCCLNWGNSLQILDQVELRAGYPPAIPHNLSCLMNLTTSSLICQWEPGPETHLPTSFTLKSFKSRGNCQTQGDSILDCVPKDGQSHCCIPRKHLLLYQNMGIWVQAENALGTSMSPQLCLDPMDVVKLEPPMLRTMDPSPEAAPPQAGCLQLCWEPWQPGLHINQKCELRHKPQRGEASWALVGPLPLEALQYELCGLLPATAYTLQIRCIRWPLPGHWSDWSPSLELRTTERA

## Recombinant human granulocyte colony-stimulating factor (rhG-CSF) (from UniProt P09919 31-207) (ligand)
  EC50 (pM) of proliferation of murine NFS-60 cells (48 h, CellTiter-Blue; receptor of the cells); rhG-CSF self-made from E. coli: 2.6 pM
